# Reference: publication doi:10.1101/2024.11.10.622895
# Values joined by “and” are separate entries in the source; they are usually repeats but may differ in a detail not shown here. Identical values can stand only once.
# Molecular target: tail tube protein (TTP) of Bacillus subtilis bacteriophage SPR (Bacillus subtilis bacteriophage SPR)
# Assay: cryo-EM structure
substance,measurement,value
tail tube protein (TTP) of Bacillus subtilis bacteriophage SPR (natural protein),stoichiometry N,5 and 6
